How the values were obtained:
[1] = target: cytochrome P450 2C9, allelic variant clone 25 (Leu359) (human)
[2] = target: cytochrome P450 2C9, allelic variant clone 65 (Ile359) (human)
[3] = Mephenytoin 4'-hydroxylase assay, recombinant human CYP2C yeast microsomes (Table III); assay type: biochemical
Protocol: (§1) Purified or recombinant yeast microsomes (10-50 pmol) were preincubated with dilauroylphosphatidylcholine (15 μg per 50 pmol P450), P450 reductase (500 U per 50 mol P450), and human cytochrome b5 (2:1 molar ratio when added). The reconstituted mixture was preincubated for 5 min at 37° C., and then placed on ice. A final concentration of 0.4 mM radiolabelled S- or R-mephenytoin (20.7 mCi/mM and 20.9 mCi/mMol) was added to 50 mM HEPES buffer (pH 7.4) containing 0.1 mM EDTA and 1.5 mM MgCl2 for recombinant 2C proteins. The mixture was then incubated at 37° with shaking for 3 min, and the reaction started with the addition of 2mM NADPH and terminated after 30 min with an equal volume of methanol. […] Reaction volumes were generally 0.25 ml except when the volume of recombinant purified cytochrome or yeast microsomes was greater than 50 μl. In these cases, the volume was increased to 0.5 ml to limit the volume of glycerol from the purified preparation to <4% of the final volume.

[4] = as above; assay type: biochemical; settings: recombinant yeast microsomes + P450 reductase, phospholipid, cytochrome b5 2:1; 0.4 mM substrate, HEPES pH 7.4, 37° C. 30 min; means ± SE
Protocol: as §1

[5] = Mephenytoin 4'-hydroxylase assay, purified recombinant P450 2C in reconstituted system (Table IV); assay type: biochemical
Protocol: Recombinant yeast microsomes were prepared from a 10-12 l culture, and recombinant P450s were purified by aminooctylsepharose chromatography as described by Iwasaki et al., J. Biol. Chem. 226:3380-3382 (1991). The Emulgen was then removed from protein by adsorption of the protein to a 4 g hydroxylapatite column (Hypatite C, Clarkson Chemical Company, Williamsport, Pa.) equilibrated with 10 mM potassium phosphate buffer (pH 7.2), 20% glycerol, 0.1 mM EDTA, and 0.1 mM DTT and washing the column with the same buffer until the absorbance at 280 nm returned to zero. The P450 was then eluted with […], and dialyzed overnight against 100 mM potassium phosphate buffer (pH 7.4, 20% glycerol and 0.1 mM EDTA. Absolute and CO difference spectra of purified P450s were determined in the same buffer but containing 0.2% Emulgen and 0.5% cholate.
Mephenytoin 4'-hydroxylase activity was measured by a modification of the radiometric HPLC assay described by Shimada et al., J. Biol. Chem. 261:909-921 (1986), as described below. Purified or recombinant yeast microsomes (10-50 pmol) were preincubated with dilauroylphosphatidylcholine (15 μg per 50 pmol P450), P450 reductase (500 U per […] P450), and human cytochrome b5 (2:1 molar ratio when added). The reconstituted mixture was preincubated for 5 min at 37° C., and then placed on ice. A final concentration of 0.4 mM radiolabelled S- or R-mephenytoin (20.7 mCi/mM and 20.9 mCi/mMol) was added to 50 mM HEPES buffer (pH 7.4) containing 0.1 mM EDTA and 1.5 mM MgCl2 for recombinant 2C proteins. The mixture was then incubated at 37° with shaking for 3 min, and the reaction started with the addition of 2mM NADPH and terminated after 30 min with an equal volume of methanol. Cytochrome b5 was not included in all CYP2C18 reactions, since it had no effect or produced a slight inhibition on the activity of this CYP protein. Reaction volumes were generally 0.25 ml except when the volume of recombinant purified cytochrome or yeast microsomes was greater than 50 μl. In these cases, the volume was increased to 0.5 ml to limit the volume of glycerol from the purified preparation to <4% of the final volume.
At the end of the incubation period, the reactions were terminated with an equal volume of methanol. The incubation mixture was centrifuged at 10,000 g for 10 min and an aliquot assayed directly using HPLC without extraction. Samples with particularly low activity were concentrated by lyophilization and redissolved in a small volume of methanol:water (1:1) before assay. The HPLC system consisted of a reverse phase C18 (10 μm) Versapak, 300 mm×4.1 mm column (Altech Associates, Deerfield, Ill.) using an isocratic solvent consisting of methanol:water (45:55) with a flow rate was kept of 1 ml/min for 25 min. Detection of radioactive peaks was accomplished using an on-line Flow-One radiochemical detector (Radiomatic Instruments Co., Tampa, Fla. Detection of the unlabeled 4'-hydroxymephenytoin authentic standard was performed using an on-line multiwavelength UV detector at both 211 and 230 nm.
Recombinant P450s were purified from yeast microsomes and assays performe

[6] = Tolbutamide hydroxylase assay, purified recombinant P450 2C (Table IV); assay type: biochemical; settings: purified P450, reconstituted; blank (22 ± 5) subtracted; means ± SE
Protocol: Tolbutamide hydroxylase activity was measured according to Knodell et al., J. Pharmacol. Exper. Ther. 241:1112-1119 (1987), with several modifications. Yeast microsomes (1 mg protein) were preincubated with 300 pmol hamster P450 reductase in 0.2 ml of the incubation buffer (below) for 3 min at 37° C. The reaction was then placed on ice and incubated in 0.2 ml of 50 mM HEPES buffer (pH 7.4) containing 1.5 mM MgCl2, 0.1 mM EDTA in a final volume of 1 ml and 1 mM sodium tolbutamide. The reaction was initiated with 0.5 mM NADPH. Human liver microsomes (0.22 mg protein) were incubated without reductase. Incubations with reconstituted recombinant P450s contained 50 pmol purified P450 enzyme, 150 pmol P450 reductase, and 15 μg dilauroylphosphatidyl-choline, and were performed in 100 mM potassium phosphate buffer (pH 7.4). Reactions were terminated after 60 min at 37° C. by the addition of 50 μl of 4N HCl, followed by extraction with 3 ml of water-saturated ethyl acetate. […] The column eluate was monitored at 230 nm and rates of product formation were determined from standard curves prepared by adding varying amounts of 4-hydroxytolbutamide to incubations conducted without NADPH. […] Samples were analyzed in triplicate.

[7] = Tolbutamide hydroxylase assay, recombinant human CYP2C yeast microsomes (Table V); assay type: biochemical; settings: 1 mg yeast microsomal protein + purified P450 reductase (1,000 units)
Protocol: Tolbutamide hydroxylase activity was measured according to Knodell et al., J. Pharmacol. Exper. […] Yeast microsomes (1 mg protein) were preincubated with 300 pmol hamster P450 reductase in 0.2 ml of the incubation buffer (below) for 3 min at 37° C. The reaction was then placed on ice and incubated in 0.2 ml of 50 mM HEPES buffer (pH 7.4) containing 1.5 mM MgCl2, 0.1 mM EDTA in a final volume of 1 ml and 1 mM sodium tolbutamide. The reaction was initiated with 0.5 mM NADPH. Human liver microsomes (0.22 mg protein) were incubated without reductase. Incubations with reconstituted recombinant P450s contained 50 pmol purified P450 enzyme, 150 pmol P450 reductase, and 15 μg dilauroylphosphatidyl-choline, and were performed in 100 mM potassium phosphate buffer (pH 7.4). Reactions were terminated after 60 min at 37° C. by the addition of 50 μl of 4N HCl, followed by extraction with 3 ml of water-saturated ethyl acetate. The ethyl acetate extracts were dried under nitrogen at 40° C., the residue resolubilized in 200 μl methanol, and 4-hydroxytolbutamide then assayed using HPLC by injecting 50 μl of the solubilized extract onto a μBONDAPAK C18 column (4.6×300 mm) using 0.05% phosphoric acid, pH 2.6: acetonitrile (6:4, v/v) as the mobile phase with a flow rate of 1 ml/min. The column eluate was monitored at 230 nm and rates of product formation were determined from standard curves prepared by adding varying amounts of 4-hydroxytolbutamide to incubations conducted without NADPH. […] Samples were analyzed in triplicate.

exogenous P450 reductase (enzyme)
metabolism of tolbutamide [1]: > 10 fold | metabolism of tolbutamide [2]: > 10 fold

B1: 2C8: recombinant human cytochrome P450 2C8 (clones 7b and 7c) expressed in yeast (protein)
chain: MEPFVVLVLCLSFMLLFSLWRQSCRRRKLPPGPTPLPIIGNMLQIDVKDICKSFTNFSKVYGPVFTVYFGMNPIVVFHGYEAVKEALIDNGEEFSGRGNSPISQRITKGLGIISSNGKRWKEIRRFSLTNLRNFGMGKRSIEDRVQEEAHCLVEELRKTKASPCDPTFILGCAPCNVICSVVFQKRFDYKDQNFLTLMKRFNENFRILNSPWIQVCNNFPLLIDCFPGTHNKVLKNVALTRSYIREKVKEHQASLDVNNPRDFMDCFLIKMEQEKDNQKSEFNIENLVGTVADLFVAGTETTSTTLRYGLLLLLKHPEVTAKVQEEIDHVIGRHRSPCMQDRSHMPYTDAVVHEIQRYSDLVPTGVPHAVTTDTKFRNYLIPKGTTIMALLTSVLHDDKEFPNPNIFDPGHFLDKNGNFKKSDYFMPFSAGKRICAGEGLARMELFLFLTTILQNFNLKSVDDLKNLNTTAVTKGIVSLPPSYQICFIPV
Mephenytoin 4'-Hydroxylase Activity S ([3]; recombinant yeast microsomes + P450 reductase, phospholipid, cytochrome b5 2:1, 0.4 mM substrate, HEPES pH 7.4, 37° C. 30 min, means ± SE): 0.037 ± 0.001 nmol/min/nmol P450 | R/S Ratio ([3]; recombinant yeast microsomes, with cytochrome b5): 0.4 | Mephenytoin 4'-Hydroxylase Activity R [4]: 0.016 ± 0.001 nmol/min/nmol P450 | R/S Ratio ([5]; purified P450, reconstituted system): 0.4 | Mephenytoin 4'-Hydroxylase Activity S ([5]; purified P450, reconstituted system, triplicate, means ± SE, blank not subtracted): 0.057 ± 0.009 nmol/min/nmol P450 | Mephenytoin 4'-Hydroxylase Activity R ([5]; triplicate, means ± SE, blank not subtracted): 0.023 ± 0.004 nmol/min/nmol P450 | Tolbutamide Hydroxylase Activity [6]: 12 ± 4 pmol/min/nmol P450 | Tolbutamide Hydroxylase Activity (nmol/min/nmol P450) ([7]; adjusted for P450 content): 0.11 ± 0.003 nmol/min/nmol P450 | Tolbutamide Hydroxylase Activity (nmol/min/mg protein) ([7]; means ±SE): 8.5 ± 0.2 nmol/min/mg protein

Source: US5912120A, “Cloning, expression and diagnosis of human cytochrome P450 2C19: the principal determinant of s-mephenytoin metabolism” (The United States of America as represented by the …, priority 1994, dated 1999)
